Experimental data taken from PMC2854098 (Molecular Biology of the Cell, 2010).
Values belong to the binder of their own block, whether it stands above or below them.

Molecular target: recombinant, active murine ERK2 protein (murine, UniProt P63085 1-358)
Test: pull-down

- binding result: binds
B1: recombinant h1CaP-CBD (natural protein, ferret, UniProt Q9GK38 1-297, looked up)
chain: MSSAHFNRGPAYGLSAEVKNKLAQKYDHQREQELREWIEGVTGRRIGSNFMDGLKDGIILCEFINKLQPGSVKKVNESTQNWHQLENIGNFIKAITKYGVKPHDIFEANDLFENTNHTQVQSTLLALASMAKTKGNKVNVGVKYAEKQERKFEPEKLREGRNIIGLQMGTNKFASQQGMTAYGTRRHLYDPKLGTDQPLDQATISLQMGTNKGASQAGMTAPGTKRQIFEPGLGMEHCDTLNVSLQMGSNKGASQRGMTVYGLPRQVYDPKYCLTPEYPELGEPTHNHHAHNYYNSA

- binding result: binds
B2: recombinant h3/acidic CaP-CBD (natural protein, rat, UniProt P37397 1-330, looked up)
chain: MTHFNKGPSYGLSAEVKNKIASKYDQQAEEDLRNWIEEVTGMGIGTNFQLGLKDGIILCELINKLQPGSVKKVNESSLNWPQLENIGNFIKAIQAYGMKPHDIFEANDLFENGNMTQVQTTLVALAGLAKTKGFHTTIDIGVKYAEKQTRRFDEGKLKAGQSVIGLQMGTNKCASQAGMTAYGTRRHLYDPKMQTDKPFDQTTISLQMGTNKGASQAGMSAPGTRRDIYDQKLTLQPVDNSTISLQMGTNKVASQKGMSVYGLGRQVYDPKYCAAPTEPVIHNGSQGTGTNGSEISDSDYQAEYPDEYHGEYPDEYPREYQYGDDQGIDY
